Legend:
[1] = molecular target: rat NPR-A (rat) (UniProt P18910); assay: cell-based or functional assay
[2] = molecular target: rat NPR-B (rat) (UniProt P16067); assay: cell-based or functional assay
Sequence of rat NPR-B (rat) (P16067 17-1047): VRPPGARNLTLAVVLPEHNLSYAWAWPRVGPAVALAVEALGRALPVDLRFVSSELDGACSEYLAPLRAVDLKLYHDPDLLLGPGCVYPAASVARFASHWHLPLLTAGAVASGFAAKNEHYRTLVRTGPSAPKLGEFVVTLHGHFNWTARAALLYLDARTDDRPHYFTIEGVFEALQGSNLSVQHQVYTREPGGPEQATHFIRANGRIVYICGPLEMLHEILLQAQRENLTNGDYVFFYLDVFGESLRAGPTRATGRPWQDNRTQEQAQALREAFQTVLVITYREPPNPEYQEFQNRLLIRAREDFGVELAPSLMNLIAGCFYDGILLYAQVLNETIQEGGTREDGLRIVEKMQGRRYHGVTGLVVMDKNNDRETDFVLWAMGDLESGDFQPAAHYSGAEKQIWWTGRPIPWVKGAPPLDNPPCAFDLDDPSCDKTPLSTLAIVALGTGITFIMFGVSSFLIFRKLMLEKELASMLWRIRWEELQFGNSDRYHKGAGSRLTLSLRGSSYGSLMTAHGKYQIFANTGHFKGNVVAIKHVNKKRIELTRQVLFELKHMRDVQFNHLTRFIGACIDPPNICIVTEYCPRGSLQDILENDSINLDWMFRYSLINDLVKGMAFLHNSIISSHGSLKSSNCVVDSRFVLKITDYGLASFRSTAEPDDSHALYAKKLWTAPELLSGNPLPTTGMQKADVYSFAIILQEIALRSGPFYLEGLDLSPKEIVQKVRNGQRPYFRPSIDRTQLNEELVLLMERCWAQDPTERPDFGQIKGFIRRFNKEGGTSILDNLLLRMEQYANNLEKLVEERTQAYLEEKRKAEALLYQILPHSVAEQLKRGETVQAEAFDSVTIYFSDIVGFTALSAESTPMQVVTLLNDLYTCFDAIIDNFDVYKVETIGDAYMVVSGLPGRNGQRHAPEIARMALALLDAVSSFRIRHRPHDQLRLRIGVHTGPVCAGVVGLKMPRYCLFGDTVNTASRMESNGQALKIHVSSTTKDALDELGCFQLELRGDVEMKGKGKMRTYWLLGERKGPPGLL

Sequence of rat NPR-A (rat) (P18910 29-1057): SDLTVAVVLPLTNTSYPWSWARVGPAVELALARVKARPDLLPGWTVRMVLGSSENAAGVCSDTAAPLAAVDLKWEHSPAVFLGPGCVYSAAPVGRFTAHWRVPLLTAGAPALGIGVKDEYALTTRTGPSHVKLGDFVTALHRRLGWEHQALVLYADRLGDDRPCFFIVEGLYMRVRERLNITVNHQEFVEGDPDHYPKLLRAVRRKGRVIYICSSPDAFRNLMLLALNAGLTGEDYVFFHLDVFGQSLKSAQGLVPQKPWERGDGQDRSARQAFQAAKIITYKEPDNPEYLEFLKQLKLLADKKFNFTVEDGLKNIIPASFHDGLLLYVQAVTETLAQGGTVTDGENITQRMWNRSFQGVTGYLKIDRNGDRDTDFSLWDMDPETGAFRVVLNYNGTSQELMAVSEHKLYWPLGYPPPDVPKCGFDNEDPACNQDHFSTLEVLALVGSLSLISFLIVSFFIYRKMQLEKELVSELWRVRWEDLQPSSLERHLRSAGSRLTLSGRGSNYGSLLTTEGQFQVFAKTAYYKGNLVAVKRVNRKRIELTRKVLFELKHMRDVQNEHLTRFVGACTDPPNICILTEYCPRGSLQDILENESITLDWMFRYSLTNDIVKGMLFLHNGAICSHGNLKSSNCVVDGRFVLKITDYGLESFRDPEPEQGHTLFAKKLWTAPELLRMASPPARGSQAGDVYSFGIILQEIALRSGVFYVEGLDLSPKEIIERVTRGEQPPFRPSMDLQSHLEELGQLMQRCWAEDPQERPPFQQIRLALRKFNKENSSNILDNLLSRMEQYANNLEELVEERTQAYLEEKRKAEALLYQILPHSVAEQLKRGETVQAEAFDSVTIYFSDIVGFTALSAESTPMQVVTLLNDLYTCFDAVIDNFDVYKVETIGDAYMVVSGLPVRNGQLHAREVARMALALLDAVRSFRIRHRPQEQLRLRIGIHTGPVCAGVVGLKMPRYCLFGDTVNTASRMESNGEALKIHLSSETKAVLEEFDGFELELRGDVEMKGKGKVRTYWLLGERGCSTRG

EC50, fluorescence signal of rat NPR-A / CNGA2 (cGMP biosensor) / GCaMP6 CHO reporter cells [1] [pM]	EC50, luminescence signal of rat NPR-B reporter cells [2] [pM]	Substance
220	–	ANP (Bachem, H-2100) (from UniProt P01161 123-150) (peptide)
2900	–	BNP (Bachem, H-5968) (from UniProt P13205 90-121) (peptide)
–	24	CNP (Bachem, H-1296) (from UniProt P23582 105-126) (peptide)
